Measured values taken from the supplement of paper PMC6757056.
± gives the standard deviation of the averaged measurements.

B1: library; a variant is named by its letters at N, in order (parent)
chain: GCUGUCACCGGUGCUUGGUACGUUAUAUUCAGCCGGUCUGAUGAGUCUNNNNNNAGACGAAACAGC

How the values were obtained:
[1] = variants of: B1; assay: FACS-Seq fitted mean relative fluorescence mCherry/BFP without ligand (log10 relative fluorescence); HEK293T overexpressing SLC46A1; higher = higher reporter protein expression; conditions: without (6R,S)-folinic acid; ligand present: no
Method: (§1)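 Hammerhead (sTRSV) ribozyme switch libraries with a ligand aptamer grafted on stem I and a randomized N4-6 loop II, cloned into the 3' UTR of mCherry and transiently transfected into HEK293T cells; RNA-Seq 72 h post transfection with ligand added 1 h before transfection; RNA read count / plasmid DNA read count normalized to the non-cleaving sTRSVctl (x100), log10; sequences with >100 DNA reads. FACS-Seq: lentiviral library sorted into 6 bins after 48 h ligand, log-normal fit mean of mCherry/BFP scaled to controls. Printed sequences are partial switch sequences.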

[2] = variants of: B1; assay: normalized RNA/DNA level without ligand (relative to sTRSVctl = 100) (log10 (% of sTRSVctl)); HEK293T overexpressing SLC46A1; higher = less ribozyme self-cleavage, higher mRNA level; conditions: without (6R,S)-folinic acid; ligand present: no
Method: as §1

[3] = variants of: B1; assay: FACS-Seq fitted mean relative fluorescence mCherry/BFP with ligand (log10 relative fluorescence); HEK293T overexpressing SLC46A1; ligand concentration (+) FACS-Seq: 6 mM; higher = higher reporter protein expression; conditions: with (6R,S)-folinic acid; ligand present: yes
Method: as §1

[4] = variants of: B1; assay: normalized RNA/DNA level with ligand (relative to sTRSVctl = 100) (log10 (% of sTRSVctl)); HEK293T overexpressing SLC46A1; ligand concentration (+) RNA-Seq: 6 mM; higher = less ribozyme self-cleavage, higher mRNA level; conditions: with (6R,S)-folinic acid; ligand present: yes
Method: as §1

Row | Variant | FACS-Seq fitted mean (log10) [1] | normalized RNA/DNA level without ligand (log10) [2] | FACS-Seq fitted mean (log10) [3] | normalized RNA/DNA level with ligand (log10) [4]
1 | UUCCGA | -0.0446 ± 0.086 | 1.997 ± 0.002 | -0.101 ± 0.13 | 1.999 ± 0.018
2 | GUAAUG | 0.394 ± 0.16 | 1.94 ± 0.023 | 0.532 ± 0.053 | 1.98 ± 0.038
3 | GGUGGA | 0.534 ± 0.074 | 2.054 ± 0.01 | 0.58 ± 0.079 | 2.06 ± 0.062
4 | CAGACC | 0.131 ± 0.097 | 2.04 ± 0.012 | 0.261 ± 0.16 | 1.99 ± 0.031
5 | UGCCAA | 0.194 ± 0.021 | 1.956 ± 0.015 | 0.168 ± 0.2 | 2.01 ± 0.0051
6 | CGGAUG | 0.00208 ± 0.054 | 2 ± 0.024 | -0.0609 ± 0.15 | 2.02 ± 0.043
7 | GUGAGG | 0.394 ± 0.093 | 1.872 ± 0.0053 | 0.497 ± 0.2 | 2.015 ± 0.0075
8 | UAUAGA | 0.233 ± 0.082 | 1.911 ± 0.003 | 0.417 ± 0.064 | 1.989 ± 0.013
9 | GACCCU | 0.102 ± 0.065 | 2.065 ± 0.0032 | -0.257 ± 0.21 | 2.04 ± 0.035
10 | UGCCUG | 0.68 ± 0.017 | 1.875 ± 0.016 | 0.78 ± 0.085 | 2.02 ± 0.021
11 | UCAAAC | 0.446 ± 0.11 | 2.01 ± 0.0051 | 0.621 ± 0.079 | 2.01 ± 0.056
12 | AUAACU | -0.545 ± 0.34 | 2.009 ± 0.007 | -0.619 ± 0.76 | 2.02 ± 0.038
13 | UCGUUG | 0.531 ± 0.029 | 1.881 ± 9.4e-05 | 0.5984 ± 0.0051 | 2.006 ± 0.0038
14 | GCUUAC | 0.583 ± 0.13 | 2.02 ± 0.026 | 0.554 ± 0.32 | 2.01 ± 0.052
15 | UCUUUU | 0.427 ± 0.12 | 2.005 ± 0.0088 | 0.26 ± 0.18 | 2.027 ± 0.013
16 | GCGAUG | 0.371 ± 0.13 | 1.959 ± 0.008 | 0.407 ± 0.055 | 2.02 ± 0.043
17 | AGGUCC | 0.442 ± 0.027 | 2.04 ± 0.0067 | 0.429 ± 0.22 | 2.03 ± 0.021
18 | UCGGCC | 0.562 ± 0.15 | 2.098 ± 0.0059 | 0.476 ± 0.036 | 2.043 ± 0.011
19 | UUCAAA | 0.198 ± 0.18 | 1.972 ± 0.0074 | 0.0558 ± 0.029 | 2.009 ± 0.019
20 | GGAAUC | -0.317 ± 0.23 | 2.055 ± 0.0066 | -0.244 ± 0.51 | 2.05 ± 0.023
21 | GUGAAG | 0.207 ± 0.012 | 1.9352 ± 0.0013 | 0.436 ± 0.27 | 2.02 ± 0.043
22 | CUCCGC | 0.443 ± 0.04 | 2.042 ± 0.0057 | 0.294 ± 0.047 | 1.985 ± 0.019
23 | AACGCU | 0.282 ± 0.034 | 2.01 ± 0.0054 | 0.217 ± 0.34 | 2 ± 0.035
24 | AAAGAG | 0.224 ± 0.031 | 1.617 ± 0.0032 | 0.316 ± 0.22 | 1.93 ± 0.049

Row | Variant | FACS-Seq fitted mean (log10) [1] | normalized RNA/DNA level without ligand (log10) [2] | FACS-Seq fitted mean (log10) [3] | normalized RNA/DNA level with ligand (log10) [4]
25 | ACGGUU | 0.41 ± 0.022 | 1.99 ± 0.02 | 0.495 ± 0.047 | 2.01 ± 0.025
26 | UGUUUG | 0.222 ± 0.04 | 1.794 ± 0.0043 | 0.62 ± 0.05 | 2.01 ± 0.025
27 | AUACAG | 0.453 ± 0.1 | 1.9374 ± 0.0012 | 0.394 ± 0.44 | 2 ± 0.028
28 | CGGGAC | -0.0861 ± 0.029 | 2.015 ± 0.0095 | -0.418 ± 0.079 | 2.02 ± 0.032
29 | GGAAAG | 0.253 ± 0.061 | 1.955 ± 0.0027 | 0.123 ± 0.011 | 2.02 ± 0.041
30 | UAUGCG | 0.276 ± 0.043 | 1.7391 ± 0.00075 | 0.61 ± 0.063 | 1.961 ± 0.014
31 | UACUGC | 0.238 ± 0.013 | 2.01 ± 0.0074 | 0.329 ± 0.25 | 2.02 ± 0.049
32 | AACUCG | 0.22 ± 0.034 | 1.998 ± 0.014 | 0.302 ± 0.52 | 1.99 ± 0.026
33 | AUGGGG | 0.139 ± 0.026 | 1.841 ± 0.0025 | 0.258 ± 0.36 | 2.03 ± 0.062
34 | UCCGUG | 0.0926 ± 0.016 | 1.78 ± 0.029 | 0.562 ± 0.067 | 1.98 ± 0.043
35 | GGGUAA | 0.299 ± 0.036 | 1.997 ± 0.011 | 0.348 ± 0.28 | 2 ± 0.026
36 | GUGGUG | 0.383 ± 0.21 | 1.92 ± 0.024 | 0.306 ± 0.32 | 2 ± 0.043
37 | AACGAA | 0.105 ± 0.2 | 1.9508 ± 0.00076 | 0.0527 ± 0.083 | 1.99 ± 0.045
38 | UGCUUG | 0.46 ± 0.098 | 1.76 ± 0.018 | 0.655 ± 0.047 | 1.96 ± 0.034
39 | AACCGG | 0.00166 ± 0.089 | 2.032 ± 0.0087 | -0.0748 ± 0.11 | 2.04 ± 0.033
40 | ACAGAU | -0.89 ± 0.044 | 1.95 ± 0.0032 | -0.82 ± 0.13 | 2.03 ± 0.04
41 | CACUGA | 0.463 ± 0.077 | 2.012 ± 0.0079 | 0.325 ± 0.16 | 2.04 ± 0.028
42 | AUAAAG | 0.418 ± 0.03 | 1.901 ± 0.0089 | 0.417 ± 0.016 | 2 ± 0.036
43 | GUGGCC | 0.354 ± 0.0094 | 2.02 ± 0.029 | 0.72 ± 0.12 | 2.05 ± 0.023
44 | GCUGAA | -0.084 ± 0.057 | 2.021 ± 0.02 | -0.25 ± 0.14 | 2.03 ± 0.028
45 | AUAUGG | 0.12 ± 0.066 | 1.867 ± 0.0088 | 0.307 ± 0.19 | 2 ± 0.034
46 | UACUAU | 0.437 ± 0.19 | 1.967 ± 0.018 | 0.489 ± 0.21 | 2.03 ± 0.023
47 | UUGGGU | 0.184 ± 0.18 | 1.943 ± 0.0059 | 0.455 ± 0.16 | 1.98 ± 0.033
48 | GGGUGA | 0.435 ± 0.078 | 2.067 ± 0.0049 | 0.36 ± 0.31 | 2.07 ± 0.036

Row | Variant | FACS-Seq fitted mean (log10) [1] | normalized RNA/DNA level without ligand (log10) [2] | FACS-Seq fitted mean (log10) [3] | normalized RNA/DNA level with ligand (log10) [4]
49 | UUUGCA | 0.00421 ± 0.011 | 1.981 ± 0.0053 | -0.275 ± 0.0052 | 1.99 ± 0.032
50 | ACAUCC | 0.096 ± 0.15 | 2.08 ± 0.018 | 0.0523 ± 0.006 | 2.03 ± 0.025
51 | UAUCAA | 0.142 ± 0.016 | 1.957 ± 0.019 | 0.277 ± 0.084 | 2 ± 0.053
52 | AAAAAG | 0.431 ± 0.18 | 1.914 ± 0.0037 | 0.605 ± 0.12 | 2 ± 0.045
53 | UUCAUG | 0.548 ± 0.083 | 1.86 ± 0.014 | 0.703 ± 0.25 | 1.97 ± 0.067
54 | ACAGCA | 0.531 ± 0.039 | 2.015 ± 0.012 | 0.555 ± 0.17 | 2.04 ± 0.037
55 | UGUUGG | -0.0684 ± 0.078 | 1.53 ± 0.048 | 0.426 ± 0.024 | 1.88 ± 0.042
56 | GGUGAU | 0.294 ± 0.15 | 2.015 ± 0.013 | 0.491 ± 0.23 | 2.028 ± 0.018
57 | GAGCAC | 0.00982 ± 0.061 | 2.002 ± 0.02 | -0.159 ± 0.38 | 2.042 ± 0.0057
58 | AAUAUU | 0.567 ± 0.082 | 1.981 ± 0.011 | 0.295 ± 0.01 | 1.99 ± 0.029
59 | AACAAA | 0.414 ± 0.011 | 1.967 ± 0.017 | 0.365 ± 0.15 | 1.99 ± 0.021
60 | GGGCAU | 0.273 ± 0.12 | 2.045 ± 0.01 | 0.0697 ± 0.059 | 2.054 ± 0.0062
61 | UAAUGC | 0.147 ± 0.059 | 1.946 ± 0.017 | 0.234 ± 0.13 | 1.98 ± 0.032
62 | AAAACG | 0.631 ± 0.022 | 1.93 ± 0.0068 | 0.582 ± 0.16 | 1.99 ± 0.015
63 | GAGUGU | 0.00433 ± 0.11 | 1.97 ± 0.01 | 0.322 ± 0.027 | 2.04 ± 0.025
64 | GAGUGA | 0.213 ± 0.11 | 1.96 ± 0.023 | 0.443 ± 0.15 | 2 ± 0.043
65 | UUGCAG | 0.439 ± 0.019 | 1.886 ± 0.0031 | 0.636 ± 0.033 | 2 ± 0.042
66 | GCGUAG | 0.314 ± 0.07 | 1.962 ± 0.0022 | 0.372 ± 0.13 | 2.05 ± 0.022
67 | UGAAGA | 0.139 ± 0.053 | 1.877 ± 0.0079 | 0.513 ± 0.11 | 1.98 ± 0.027
68 | UAACGC | 0.334 ± 0.0089 | 1.993 ± 0.008 | 0.0549 ± 0.066 | 2.02 ± 0.045
69 | CUUGGG | 0.49 ± 0.05 | 1.9697 ± 0.0016 | 0.119 ± 0.14 | 2.04 ± 0.03
70 | UAAAGA | 0.265 ± 0.1 | 1.88 ± 0.019 | 0.312 ± 0.088 | 1.99 ± 0.029
71 | GUAAAC | 0.139 ± 0.033 | 1.965 ± 0.0075 | 0.507 ± 0.47 | 2.04 ± 0.0061
72 | GUGGGA | -0.679 ± 0.016 | 2.018 ± 0.0036 | -0.94 ± 0.38 | 2.03 ± 0.025
